Data reported in paper PMC13042608, “Cross‐Platform Biosensing of Immune Receptors Using Peptide‐Functionalized Graphene” (Advanced Science, 2025).
Non-standard residues stand in square brackets, D forms with d. No end group written: not given here.

Target: T1, WKYMVm‐NH2
T1 construct: synthetic hexapeptide agonist of formyl peptide receptors; also called W‐peptide; target peptide; source: synthetic peptide (custom peptide synthesis, purity >95%)
T1 peptide: WKYMV[dM]-NH2
Assay: SPR; graphene-enhanced MP-SPR; peptide immobilised on PBA-graphene by amine coupling; nucleofected HEK293T cells (≈100 cells mL^-1) injected at 10 µL min^-1 for 20 min in C1 buffer pH 7.4; 22 °C
Conditions: one partner purified

B1: Formyl peptide receptor 2 (FPR2) on transfected HEK293T cells (receptor, human, UniProt P25090 1-351, looked up)
chain: METNFSTPLNEYEEVSYESAGYTVLRILPLVVLGVTFVLGVLGNGLVIWVAGFRMTRTVTTICYLNLALADFSFTATLPFLIVSMAMGEKWPFGWFLCKLIHIVVDINLFGSVFLIGFIALDRCICVLHPVWAQNHRTVSLAMKVIVGPWILALVLTLPVFLFLTTVTIPNGDTYCTFNFASWGGTPEERLKVAITMLTARGIIRFVIGFSLPMSIVAICYGLIAAKIHKKGMIKSSRPLRVLTAVVASFFICWFPFQLVALLGTVWLKEMLFYGKYKIIDILVNPTSSLAFFNSCLNPMLYVFVGQDFRERLIHSLPTSLERALSEDSAPTNDTAANSASPPAETELQAM
notes: formyl peptide receptor 2, human, gene amplified from human genomic DNA and cloned into pcDNA3.1(+); also called HEK FPR2; HEK‐FPR2; source: nucleofection with a GFP plasmid for biosensors), on living cells
With B1 as the binder, how does the “SPR signal relative to the Control peptide (f-MEQQNK) surface” value read?
Its value is about 4 fold.
